Data published in paper PMC11346174 (Investigative Ophthalmology & Visual Science, 2024).

Assays:
[1] = biological target: T1, PEDF-IgG Fc fusion protein (PEDF-Fc) (human, UniProt P36955 20-418); test: colorimetric cell binding assay
T1 sequence (looked up): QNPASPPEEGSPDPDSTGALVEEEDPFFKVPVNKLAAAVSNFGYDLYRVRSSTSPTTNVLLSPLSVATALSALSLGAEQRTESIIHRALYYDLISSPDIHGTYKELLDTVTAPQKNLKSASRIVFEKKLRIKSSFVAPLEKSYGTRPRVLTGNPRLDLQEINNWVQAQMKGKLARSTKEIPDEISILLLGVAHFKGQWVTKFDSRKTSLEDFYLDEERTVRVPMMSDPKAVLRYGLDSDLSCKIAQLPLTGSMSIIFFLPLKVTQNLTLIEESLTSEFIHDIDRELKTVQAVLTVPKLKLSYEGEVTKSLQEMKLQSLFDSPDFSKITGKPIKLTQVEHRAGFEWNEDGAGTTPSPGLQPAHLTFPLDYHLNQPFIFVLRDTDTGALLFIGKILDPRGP

[2] = biological target: T1, PEDF-IgG Fc fusion protein (PEDF-Fc); test: peptide or protein array

B1: peptide AE10 (peptide)
peptide: NKRASVRRRIDQSNSHA
binding result [1]: binds

B2: soluble VEGFR-1 amino acid stretch (3), 629-651 (C terminus of soluble VEGFR-1), cellulose-bound peptides (peptide)
peptide: IRGEHCNKKAVFSRISKFKSTRN
binding result [2]: binds

B3: VEGFR-1/Flt-1 amino acid stretch (2), 303-325 (D4), cellulose-bound peptides (peptide)
peptide: YDKAFITVKHRKQQVLETVAGKR
binding result [2]: binds

B4: VEGFR-1/Flt-1 amino acid stretch (1), 245-265 (D3), cellulose-bound peptides (peptide)
peptide: EKNKRASVRRRIDQSNSHANI
binding result [2]: binds

B5: peptide AF10 (peptide)
peptide: AFITVKHRKQQVLETVA
binding result [1]: binds
